Experimental data: publication PMC4442108, “Preclinical Validation of the Heparin-Reactive Peptide p5+14 as a Molecular Imaging Agent for Visceral Amyloidosis” (Molecules, 2015)
Blank lines part the entries; values can stand above or below the molecule they belong to. Where no end group is shown, it is not given here. The star is where a group is joined. 125I = [125I]*

What was measured:
[1] = Solution stability (stated, unpublished data); type: physicochemical; conditions: Wall and Kennel
[2] = Dynamic PET/CT pharmacokinetics of 124I-p5+14 in WT mice; type: in vivo, mouse (WT); conditions: post injection
Procedure: Dynamic PET imaging required radioiodination of the peptide with positron emitter, Iodine-124 (^124I; IBA Molecular, Sterling, WV, USA). Peptide p5+14 was radiolabeled using the Iodogen (Piercechemical, Rockford, IL, USA) oxidation method, as described. Briefly, 10 µL of 0.5 M NaPO4 buffer pH 7.6 was added to a 1.5 mL microcentrifuge tube followed by addition of ~50 µL of ^124I (~2 mCi). One µL of 2 mg/mL fresh ascorbic acid solution in phosphate buffered saline (PBS) was added to ensure complete reduction of ^124I-iodine. Approximately 25 µL (~50 µg) of peptide dissolved in distilled H2O was mixed with ~75 µL of PBS and added to the reaction mixture. Seven µL of 1 mg/mL Iodogen dissolved in acetonitrile was added to initiate the reaction. After 2 min, the reaction was quenched by addition of 50 µL of 2 mg/mL ascorbic acid. Twenty µL of blue dextran and 50 µL of filtered (0.2 µm pore sized) 0.1% gelatin in PBS were added to the reaction mixture. Radiolabeled product was separated from free ^124I by size exclusion chromatography as described above. Fractions were manually collected as the blue dextran marker reached the base of the column and the radioactivity in each measured using a dose calibrator (Capintec, Model 15, Ramsey, NJ, USA) set for ^124I detection. Peak fractions were pooled for use in the study, and radiopurity was assessed as described above. […]

[3] = molecular target: synthetic amyloid fibrils of recombinant human λ6 light chain variable domain of patient Wil (rVλ6Wil) (human); assay: ELISA; EuLISA: rVλ6Wil fibrils coated and dried on NUNC Maxisorb wells (8 µg/mL, 50 µL, overnight 37 °C), blocked with 1% BSA; biotinylated p5+14 1 x 10^-10 to 1 x 10^-6 M, 1 h at 37 °C, PBS with 0.05% Tween 20; europium/streptavidin detection; n = 3
[4] = molecular target: synthetic amyloid fibrils of recombinant human λ6 light chain variable domain of patient Wil (rVλ6Wil) (human); assay: co-sedimentation; peptide binding assay with rVλ6Wil fibrils in suspension in 10 mM phosphate buffer (pH 7.6) containing 0.15 (PBS), 0.25, 0.5, 1.0 or 2.0 M NaCl; bound peptide as % total counts added; n = 2
[5] = molecular target: synthetic amyloid fibrils of recombinant human λ6 light chain variable domain of patient Wil (rVλ6Wil) (human); assay: co-sedimentation; ex vivo amyloid binding assay: 25 µL of 1 mg/mL synthetic rVλ6Wil fibrils resuspended in 200 µL PBS with 0.05% Tween-20, ~5 ng 125I-p5+14 added, rotated at RT for 1 h, centrifuged twice at 15,000 x g; % of counts in the pellet

solution stability relative to p5 [1]: greater solution stability | time to clearance from healthy organs [2]: ≤ 2 h
Molecule: GGGYSKAQKAQAKQAKQAQKAQKAQAKQAKQAQKAQKAQAKQAKQ [p5+14]

EC50 [3]: 15 nM
Molecule: C(maleimide‑biotin)GGGYSKAQKAQAKQAKQAQKAQKAQAKQAKQAQKAQKAQAKQAKQ [biotinylated p5+14 (with a cysteine residue at the N-terminal)]

% bound at 2 M NaCl [4]: 20% | % bound at the lowest NaCl concentration (0.15 M) [4]: 95% | NaCl concentration at half-maximal loss of binding (printed as EC50) [4]: 1 M | % bound [5]: 95.7%
Molecule: GGGY(125I)SKAQKAQAKQAKQAQKAQKAQAKQAKQAQKAQKAQAKQAKQ [125I-p5+14 (radioiodinated peptide p5+14)]
